Source: patent US20240239881A1

Biological target: Cynomolgus monkey Ang2 C-terminal domain (Lys274-Phe495) (cynomolgus monkey)
Test: ForteBio BLI, antibody on AHQ sensor, 100 nM antigen, 1:1 model

Cynomolgus monkey Ang2 C-terminal domain (Lys274-Phe495) (cynomolgus monkey), sequence (chain, as listed by the source, form in doubt): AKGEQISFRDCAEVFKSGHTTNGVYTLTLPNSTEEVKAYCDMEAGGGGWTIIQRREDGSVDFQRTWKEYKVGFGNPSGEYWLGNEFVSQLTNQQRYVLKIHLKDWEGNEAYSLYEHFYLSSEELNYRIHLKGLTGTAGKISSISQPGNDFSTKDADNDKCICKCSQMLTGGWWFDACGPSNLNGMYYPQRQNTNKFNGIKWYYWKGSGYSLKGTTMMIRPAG

Kd [nM]	Binder
44.3	chimeric antibody 81H10 (antibody, human IgG1, kappa, V domains shown) VH: EVKLEESGGGLVQPGGSMKLSCVASGFTFSNYWMNWVRQSPEKGLEWVAEIRLKSNNYATHYAESVKGRFTISRDVSKSSVYLQMNNLRTEDTGIYYCTDTAPFAYWGQGTLVTVSA VL: DIVMTQSHKFMSTSVGDRVSITCKASQDVGTDVAWYQQKPGQSPKLLIYWASTRHTGVPDRFTGSGSGTDFTLTISNVQSEDLSDYFCQQYSSYPLTFGGGTKLEIKR
88.3	humanized antibody hz81H10.4 (antibody, human IgG1, kappa, V domains shown) VH: EVQLVESGGGLVKPGGSLRLSCAASGFTFSNYWMNWVRQAPGKGLEWVAEIRLKSNNYATHYAESVKGRFTISRDVSKNTVYLQMNSLKTEDTAVYYCTDTAPFAYWGQGTLVTVSS VL: DIQMTQSPSSLSASVGDRVTITCKASQDVGTDVAWYQQKPGKAPKLLIYWASTRHTGVPSRFSGSGSGTDFTLTISSLQPEDFATYYCQQYSSYPLTFGGGTKVEIKR
